Here are results for 22 sequences from the supplement of paper PMC9170038.

This data set relates to K4 kissing-loop RNA reporter. Description: apparent KD of K4 kissing-loop reporter; higher = weaker reporter binding. The settings on record: Eterna round: R107. The procedure: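 RNA-MaP round R107: designed RNA switches with theophylline, tryptophan, arginine or FMN aptamers are transcribed on-chip within common flanks. They are titrated with a labelled K4 kissing-loop RNA reporter in RNA-MaP buffer (100 mM Tris pH 7.5, 80 mM KCl, 4 mM MgCl2), without ligand or with the indicated ligand. Median apparent KD per design.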

The mark [1] stands for this setting: input ligand: theophylline 20 uM.
The mark [2] stands for this setting: input ligand: tryptophan 2.4 mM.
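Further: bound reporter read as fluorescence of individual clusters on recovered sequencing chips by microscopy, with normalized cluster intensities fitted with a binding model.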

Consider “UGUGAUGAGUAGAGUGAUGUUUUGAAGGAUACCAGAGUGUUGUUAUUCCCUUGGCAGCUUGAGUGAUGUUUGAUGUUGUUGUAGU [zizmullin]”, for which the “apparent KD of K4 kissing-loop reporter” value is, setting by setting: (input ligand: FMN 200 uM) 303 nM; (input ligand: arginine 13.2 mM) 213 nM; (input ligand: none) 248 nM; under setting [1], 246 nM; under setting [2], 196 nM.

Turning to “GCGGGCCCUGGAGGAUAUGAGUCGAGUGAUGUUCGGCGGUCCAUGCCGAUGCGGCGUUAUGCCCUUUUAGAAGGCCAGGGUCCGC [#2 Exclusion - FMN B Attempt #8 (HarryS)]”, the “apparent KD of K4 kissing-loop reporter” value is, setting by setting: (input ligand: FMN 200 uM) 543 nM; (input ligand: arginine 13.2 mM) 234 nM; (input ligand: none) 283 nM; under setting [1], 302 nM; under setting [2], 289 nM.

Turning to “UAGAGUCACAAGACAGUGAUGUUGUCUACUGAGGAUAUCAUGAAUAUGAGAAGGCAGUGUUGGAGGUCUCUAACAACAGACUCUG [FMN A SS t3]”, the “apparent KD of K4 kissing-loop reporter” value is, setting by setting: (input ligand: FMN 200 uM) 237 nM; (input ligand: arginine 13.2 mM) 227 nM; (input ligand: none) 389 nM; under setting [1], 370 nM; under setting [2], 280 nM.

“AAAAUAACCCAGUGAUGUUGGUAUGCAGAUACCAGCGACGAAAGUCGCCCUUGGCAGCUGUGGACGUACAAAAUAAGUACGUCCU”: the “apparent KD of K4 kissing-loop reporter” value by setting is: (input ligand: FMN 200 uM) 1230 nM; (input ligand: arginine 13.2 mM) 834 nM; (input ligand: none) 1420 nM; under setting [1], 1220 nM; under setting [2], 1520 nM.

With “UAUGAAGGUGGAGGAUAUUGAUUGAAUCUUGGUCAGGAGUGAUGUUCCGGGAAGCCUUGGAUUCAUCGAGAAGGCCAAGGAUAGU [Extra 3]”, the “apparent KD of K4 kissing-loop reporter” value is, setting by setting: (input ligand: FMN 200 uM) 123 nM; (input ligand: arginine 13.2 mM) 344 nM; (input ligand: none) 344 nM; under setting [1], 330 nM; under setting [2], 327 nM.

On to “AGACCACAAAGUGGUCAGUGUUCGCUCCGGCGAGGACCGGUACGGCCGCCACUCGCGAGUGAUGUUCGCGAGUGGAGCGAACACA [Omei KL Tryp A Exc A v1]”, for which the “apparent KD of K4 kissing-loop reporter” value was 88.8 nM (input ligand: FMN 200 uM); 78 nM (input ligand: arginine 13.2 mM); 88.6 nM (input ligand: none); 76 nM under setting [1]; 86.3 nM under setting [2].

Turning to “CGAGUGAUGUUCGUUCGUUUAUUUCGGUGACAGGAUAUGCGGAAACGCAGAAGGGUCACCUUUGGGUUACCGGAAUUAACGUUAU [Ex FMN A 30]”, the “apparent KD of K4 kissing-loop reporter” value stood at 640 nM (input ligand: FMN 200 uM); 455 nM (input ligand: arginine 13.2 mM); 561 nM (input ligand: none); 414 nM under setting [1]; 584 nM under setting [2].

With “ACUACGAAGACGGCCGCCACUGAUAUUCGUAGAUCCAUCAUUGCAUGAGUGAUGUUCAUGUAUAUCAGGACCGGGUCAAGAUGGU [KL-XTryp-B18 #analogue]”, the “apparent KD of K4 kissing-loop reporter” value runs as follows: (input ligand: FMN 200 uM) 295 nM; (input ligand: arginine 13.2 mM) 245 nM; (input ligand: none) 305 nM; under setting [1], 282 nM; under setting [2], 213 nM.

Regarding “UUGGAAAUCAGAAGGAGCGUCUAAAAUAAGAGAACCAGUGAUGUUGGUUUUAUUUAAUGAAGACAGGUAGGUCGCUGAAUUUUUA [Same State Arginie B GF 19]”, the “apparent KD of K4 kissing-loop reporter” value (input ligand: FMN 200 uM) stood at 100 nM; the “apparent KD of K4 kissing-loop reporter” value (input ligand: arginine 13.2 mM) was 95.2 nM; the “apparent KD of K4 kissing-loop reporter” value (input ligand: none) stood at 99.3 nM; the “apparent KD of K4 kissing-loop reporter” value under setting [1] came to 96.1 nM; the “apparent KD of K4 kissing-loop reporter” value under setting [2] turned out to be 94.9 nM.

For the sequence “GGUAGCAUGGCGGCCGCCACUUCAUAUGGAGUGAUGUUCCAGCAUCUUAUAAGACUGAGGUGAGGAAGGACCGGGCCAUGCUACC”, the “apparent KD of K4 kissing-loop reporter” value (input ligand: FMN 200 uM) was 635 nM; the “apparent KD of K4 kissing-loop reporter” value (input ligand: arginine 13.2 mM) is 561 nM; the “apparent KD of K4 kissing-loop reporter” value (input ligand: none) was 577 nM; the “apparent KD of K4 kissing-loop reporter” value under setting [1] was determined as 615 nM; the “apparent KD of K4 kissing-loop reporter” value under setting [2] came to 189 nM.

Regarding “GACUGGUUAACGAGUGAUGUUCGAUGGGAAGGAGCGCGCAGAAGUGCAGGUAGGUCGCCCUAUAACCAGGAAAUGGCUGGAUUAU [3.)]”, the “apparent KD of K4 kissing-loop reporter” value was 205 nM (input ligand: FMN 200 uM); 224 nM (input ligand: arginine 13.2 mM); 205 nM (input ligand: none); 252 nM under setting [1]; 145 nM under setting [2].

Regarding “AGUCCACUCUAAAGAGUGGACCUAAGGGAUACCAGUGAUGUUGGUCACCCUUGGCAGCCCUCUGUCAUCGAUAAAGAUGGCAGAA”, the “apparent KD of K4 kissing-loop reporter” value (input ligand: FMN 200 uM) turned out to be 142 nM; the “apparent KD of K4 kissing-loop reporter” value (input ligand: arginine 13.2 mM) was determined as 110 nM; the “apparent KD of K4 kissing-loop reporter” value (input ligand: none) turned out to be 114 nM; the “apparent KD of K4 kissing-loop reporter” value under setting [1] came to 112 nM; the “apparent KD of K4 kissing-loop reporter” value under setting [2] amounted to 108 nM.

For “UGGAGUUGACGAAAAGUCAACUCCUGAGAUACCAGUGACGAAAGUCACCCUUGGCAGCUCACUGCCAGUGAUGUUGGUUUAUAAA [#OpenEnded 2]”, the “apparent KD of K4 kissing-loop reporter” value by setting is: (input ligand: FMN 200 uM) 167 nM; (input ligand: arginine 13.2 mM) 135 nM; (input ligand: none) 134 nM; under setting [1], 266 nM; under setting [2], 130 nM.

Consider “AGCGUCUGAAGAGGAUAUGACCAGUGAUGUUGGUUACUACCUCAAAUUAGUGUCGCGCCAAAAUCGUCAGAAGGCUUCGGCGCGC [Ussoes]”, for which the “apparent KD of K4 kissing-loop reporter” value is 135 nM (input ligand: FMN 200 uM); 92 nM (input ligand: arginine 13.2 mM); 98.6 nM (input ligand: none); 96.7 nM under setting [1]; 92.9 nM under setting [2].

Take “AAAUUCUUUUUUUUAUUUAACUUUUCAGAAGGAGCGUGGUAGUACACAGGUAGGUCGCUGAAUAUAAGACUAGUGAUGUUAGUUA [JR_SSArginiA_Sub009]”: the “apparent KD of K4 kissing-loop reporter” value is, setting by setting: (input ligand: FMN 200 uM) 172 nM; (input ligand: arginine 13.2 mM) 190 nM; (input ligand: none) 235 nM; under setting [1], 215 nM; under setting [2], 165 nM.

As for “AAGUCAUAUAGAAGGAGCGUGUUUUAUAAUUUAUUUUCAUGAUCGAGUGAUGUUCGAUAUACACAGGUAGGUCGCUGUAUAAUAA [hbob_SS_Arginine_B_2t140]”, the “apparent KD of K4 kissing-loop reporter” value reads like this: (input ligand: FMN 200 uM) 114 nM; (input ligand: arginine 13.2 mM) 144 nM; (input ligand: none) 129 nM; under setting [1], 133 nM; under setting [2], 101 nM.

Turning to “CUUUUACAGUCGGCCGCCACUGACAGCACUUCAAAGACAGUAUAAGGGUAGUGAUGUUACUUUAUCAGGACCGGGACUACCUAAC [theeternabot_sameState_KL_Trp_B_3]”, the “apparent KD of K4 kissing-loop reporter” value reads like this: (input ligand: FMN 200 uM) 215 nM; (input ligand: arginine 13.2 mM) 121 nM; (input ligand: none) 205 nM; under setting [1], 279 nM; under setting [2], 358 nM.

Regarding “UUUCUUUUAAUAACACUUUAUACAACUGAAGGAGCGACAAUAAAGUCAGGUAGGUCGCAGAAUUAAUGAGUGAUGUUCAUAUUUA [JR_ExcArginiA_Sub012]”, the “apparent KD of K4 kissing-loop reporter” value worked out at 95.4 nM (input ligand: FMN 200 uM); 197 nM (input ligand: arginine 13.2 mM); 121 nM (input ligand: none); 180 nM under setting [1]; 83 nM under setting [2].

For “GUACGCUCUCGAGUGAUGUUCGAUAAUCGCGAGGAUAUCGCUUUUGCGAGAAGGCGCGGAAUGAGGAAACUCGUUCUGAGUGUAC [FMN A 24]”, the “apparent KD of K4 kissing-loop reporter” value reads like this: (input ligand: FMN 200 uM) 603 nM; (input ligand: arginine 13.2 mM) 390 nM; (input ligand: none) 1060 nM; under setting [1], 673 nM; under setting [2], 841 nM.

Take “GGCAGUGAUGUUGCCUAAGCAACGCAUGCGGAGGAUAUUCGUUCGGGAAGAAGGCCGCAGCGUUCUCUCGCGAGUGAUGUUCGCA [Same State FMN A GF 22]”: the “apparent KD of K4 kissing-loop reporter” value amounted to 158 nM (input ligand: FMN 200 uM); 160 nM (input ligand: arginine 13.2 mM); 173 nM (input ligand: none); 166 nM under setting [1]; 147 nM under setting [2].

In the case of “CUCGAGUGAUGUUCGAUUAUGUAUACAGAUACCAGUGAAUUUUAACACCCUUGGCAGCUGGUAGAAUCAUUGUAAUUUUAACUAG [JR_ExcTheophyA_Sub001]”, the “apparent KD of K4 kissing-loop reporter” value turned out to be 175 nM (input ligand: FMN 200 uM); 260 nM (input ligand: arginine 13.2 mM); 218 nM (input ligand: none); 254 nM under setting [1]; 150 nM under setting [2].

With “UAUACUAGACAAGAGAGAAUUCUCUCAAGAGAGGAUAUCCGAAUUCGGAGAAGGCUCUCUAAGUGAUGUUUGGAAUAGUCUAGAA [AK5 SS FMN A]”, the “apparent KD of K4 kissing-loop reporter” value is, setting by setting: (input ligand: FMN 200 uM) 660 nM; (input ligand: arginine 13.2 mM) 448 nM; (input ligand: none) 737 nM; under setting [1], 500 nM; under setting [2], 500 nM.
